Measured values reported in US20250019439A1 (Adimab, published 2025).

Tests used:
ADI-74968 = molecular target: T1, ADI-74968; assay: SPR Carterra avidity, yeast anti-ID
T1 construct: pH-dependent anti-CD3 antibody made in CHO cells
Outline: (§1)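 Kinetic constants come from a 1:1 binding-model fit of double-referenced, drift-corrected sensorgrams. Anti-CD3 antibodies (100 nM) were captured via immobilized anti-human Fc, and anti-idiotype binding was recorded at 25° C in HBSTE, with dissociation monitored for 300s.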

ADI-50024 = molecular target: T2, ADI-50024; assay: SPR Carterra avidity, yeast anti-ID
T2 construct: anti-CD3 antibody made in CHO cells, captured by anti-human Fc
Outline: as §1

ADI-70330 = molecular target: T3, ADI-70330; assay: SPR Carterra avidity, yeast anti-ID
T3 construct: anti-CD3 antibody made in CHO cells, captured by anti-human Fc
Outline: as §1

ADI-76358 = molecular target: T4, ADI-76358; assay: SPR Carterra avidity, yeast anti-ID
T4 construct: anti-CD3 antibody made in CHO cells, captured by anti-human Fc
Outline: as §1

ADI-48650 = molecular target: T5, ADI-48650; assay: SPR Carterra avidity, yeast anti-ID
T5 construct: pH-dependent anti-CD3 antibody made in CHO cells
Outline: as §1

ADI-48587 = molecular target: T6, ADI-48587; assay: SPR Carterra avidity, yeast anti-ID
T6 construct: pH-dependent anti-CD3 antibody made in CHO cells
Outline: as §1

ADI-26906 IgG = molecular target: T7, ADI-26906 IgG; assay: SPR Carterra avidity, yeast anti-ID
T7 construct: anti-CD3 IgG
Outline: as §1

ADI-76357 = molecular target: T8, ADI-76357; assay: SPR Carterra avidity, yeast anti-ID
T8 construct: anti-CD3 antibody made in CHO cells, captured by anti-human Fc
Outline: as §1

ADI-26916 IgG = molecular target: T9, ADI-26916 IgG; assay: SPR Carterra avidity, yeast anti-ID
T9 construct: anti-CD3 IgG
Outline: as §1

ADI-48592 = molecular target: T10, ADI-48592; assay: SPR Carterra avidity, yeast anti-ID
T10 construct: pH-dependent anti-CD3 antibody made in CHO cells
Outline: as §1

ADI-76360 = molecular target: T11, ADI-76360; assay: SPR Carterra avidity, yeast anti-ID
T11 construct: anti-CD3 antibody made in CHO cells, captured by anti-human Fc
Outline: as §1

ADI-74965 = molecular target: T12, ADI-74965; assay: SPR Carterra avidity, yeast anti-ID
T12 construct: pH-dependent anti-CD3 antibody made in CHO cells
Outline: as §1

ADI-76361 = molecular target: T13, ADI-76361; assay: SPR Carterra avidity, yeast anti-ID
T13 construct: anti-CD3 antibody made in CHO cells, captured by anti-human Fc
Outline: as §1

CTL-62223 = molecular target: T14, CTL-62223; assay: SPR Carterra avidity, yeast anti-ID
T14 construct: also called mosunetuzumab
Outline: as §1

ADI-70326 = molecular target: T15, ADI-70326; assay: SPR Carterra avidity, yeast anti-ID
T15 construct: anti-CD3 antibody made in CHO cells, captured by anti-human Fc
Outline: as §1

ADI-70327 = molecular target: T16, ADI-70327; assay: SPR Carterra avidity, yeast anti-ID
T16 construct: anti-CD3 antibody made in CHO cells, captured by anti-human Fc
Outline: as §1

ADI-26919 = molecular target: T17, ADI-26919; assay: SPR Carterra avidity, yeast anti-ID
T17 construct: anti-CD3 antibody made in CHO cells, captured by anti-human Fc
Outline: as §1

ADI-48576 = molecular target: T18, ADI-48576; assay: SPR Carterra avidity, yeast anti-ID
T18 construct: pH-dependent anti-CD3 antibody made in CHO cells
Outline: as §1

ADI-67445 = molecular target: T19, ADI-67445; assay: SPR Carterra avidity, yeast anti-ID, *koff limit
T19 construct: anti-CD3 antibody made in CHO cells, captured by anti-human Fc
Outline: as §1

ADI-67450 = molecular target: T20, ADI-67450; assay: SPR Carterra avidity, yeast anti-ID, *koff limit
T20 construct: anti-CD3 antibody made in CHO cells, captured by anti-human Fc
Outline: as §1

ADI-26943 = molecular target: T21, ADI-26943; assay: SPR Carterra avidity, yeast anti-ID, *koff limit
T21 construct: anti-CD3 antibody made in CHO cells, captured by anti-human Fc
Outline: as §1

ADI-26921 IgG = molecular target: T22, ADI-26921 IgG; assay: SPR Carterra avidity, yeast anti-ID, *koff limit
T22 construct: anti-CD3 IgG
Outline: as §1

ADI-26924 = molecular target: T23, ADI-26924; assay: SPR Carterra avidity, yeast anti-ID, *koff limit
T23 construct: anti-CD3 antibody made in CHO cells, captured by anti-human Fc
Outline: as §1

ADI-76359 = molecular target: T24, ADI-76359; assay: SPR Carterra avidity, yeast anti-ID, *koff limit
T24 construct: anti-CD3 antibody made in CHO cells, captured by anti-human Fc
Outline: as §1

ADI-74967 = molecular target: T25, ADI-74967; assay: SPR Carterra avidity, yeast anti-ID, *koff limit
T25 construct: pH-dependent anti-CD3 antibody made in CHO cells
Outline: as §1

ADI-26913 IgG = molecular target: T26, ADI-26913 IgG; assay: SPR Carterra avidity, yeast anti-ID, *koff limit
T26 construct: anti-CD3 IgG
Outline: as §1

ADI-74966 = molecular target: T27, ADI-74966; assay: SPR Carterra avidity, yeast anti-ID, *koff limit
T27 construct: pH-dependent anti-CD3 antibody made in CHO cells
Outline: as §1

ADI-67447 = molecular target: T28, ADI-67447; assay: SPR Carterra avidity, yeast anti-ID, *koff limit
T28 construct: anti-CD3 antibody made in CHO cells, captured by anti-human Fc
Outline: as §1

ADI-26909 = molecular target: T29, ADI-26909; assay: SPR Carterra avidity, yeast anti-ID, *koff limit
T29 construct: anti-CD3 antibody made in CHO cells, captured by anti-human Fc
Outline: as §1

ADI-26920 IgG = molecular target: T30, ADI-26920 IgG; assay: SPR Carterra avidity, yeast anti-ID, *koff limit
T30 construct: anti-CD3 IgG
Outline: as §1

ADI-76362 = molecular target: T31, ADI-76362; assay: SPR Carterra avidity, yeast anti-ID, *koff limit
T31 construct: anti-CD3 antibody made in CHO cells, captured by anti-human Fc
Outline: as §1

ADI-22523 Fab = molecular target: T32, ADI-22523 Fab; assay: BLI; tip anti-ID IgG, solution ADI-22523 Fab
T32 construct: anti-CD3 Fab by papain digestion of the IgG
Outline: (§2)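 Sensors carrying captured anti-ID IgG were equilibrated 30 min in assay buffer before a 60 s baseline. Equilibrium KD was taken as koff/kon from a 1:1 model.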

ADI-22523 IgG = molecular target: T33, ADI-22523 IgG; assay: BLI; tip anti-ID IgG, solution ADI-22523 IgG
T33 construct: anti-CD3 IgG
Outline: as §2

T3 sequence (VH, as listed by the source limits assumed, chain 1 of 2): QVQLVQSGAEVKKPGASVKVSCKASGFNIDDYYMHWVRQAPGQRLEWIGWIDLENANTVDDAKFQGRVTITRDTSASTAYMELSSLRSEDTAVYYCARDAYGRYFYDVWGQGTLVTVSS
T3 sequence (VL, as listed by the source limits assumed, chain 2 of 2): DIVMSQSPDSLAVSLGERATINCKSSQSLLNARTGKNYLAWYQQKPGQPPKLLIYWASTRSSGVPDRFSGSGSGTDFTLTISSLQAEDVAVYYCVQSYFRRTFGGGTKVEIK
T14 sequence (VH, as listed by the source, chain 1 of 2): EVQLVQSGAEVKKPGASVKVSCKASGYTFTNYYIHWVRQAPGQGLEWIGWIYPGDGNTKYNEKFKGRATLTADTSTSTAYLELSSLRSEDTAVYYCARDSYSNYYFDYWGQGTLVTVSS
T14 sequence (VL, as listed by the source, chain 2 of 2): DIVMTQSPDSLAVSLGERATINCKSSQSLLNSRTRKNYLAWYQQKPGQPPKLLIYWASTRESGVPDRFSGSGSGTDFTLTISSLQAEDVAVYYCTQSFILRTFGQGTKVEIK
T31 sequence (VH, as listed by the source, chain 1 of 2): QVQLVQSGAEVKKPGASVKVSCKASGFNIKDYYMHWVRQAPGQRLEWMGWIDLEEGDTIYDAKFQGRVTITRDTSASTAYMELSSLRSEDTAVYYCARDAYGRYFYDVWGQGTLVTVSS
T31 sequence (VL, as listed by the source, chain 2 of 2): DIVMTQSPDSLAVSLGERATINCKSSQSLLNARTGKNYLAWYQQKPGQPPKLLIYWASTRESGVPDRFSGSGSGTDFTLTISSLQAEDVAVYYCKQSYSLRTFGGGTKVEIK
T10 sequence (VH, as listed by the source, chain 1 of 2): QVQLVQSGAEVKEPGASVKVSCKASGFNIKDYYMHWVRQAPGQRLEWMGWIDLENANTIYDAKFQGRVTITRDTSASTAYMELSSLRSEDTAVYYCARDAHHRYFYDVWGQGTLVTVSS
T10 sequence (VL, as listed by the source, chain 2 of 2): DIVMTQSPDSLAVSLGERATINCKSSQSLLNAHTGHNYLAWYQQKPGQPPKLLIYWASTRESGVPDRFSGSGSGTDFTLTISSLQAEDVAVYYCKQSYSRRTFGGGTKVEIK
T18 sequence (VH, as listed by the source, chain 1 of 2): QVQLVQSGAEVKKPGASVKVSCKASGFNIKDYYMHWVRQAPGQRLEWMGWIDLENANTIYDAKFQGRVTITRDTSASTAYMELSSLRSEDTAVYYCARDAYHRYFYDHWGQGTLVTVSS
T18 sequence (VL, as listed by the source, chain 2 of 2): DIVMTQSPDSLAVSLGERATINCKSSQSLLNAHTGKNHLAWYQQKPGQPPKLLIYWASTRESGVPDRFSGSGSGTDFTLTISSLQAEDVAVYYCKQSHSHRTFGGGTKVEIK
T5 sequence (VH, as listed by the source, chain 1 of 2): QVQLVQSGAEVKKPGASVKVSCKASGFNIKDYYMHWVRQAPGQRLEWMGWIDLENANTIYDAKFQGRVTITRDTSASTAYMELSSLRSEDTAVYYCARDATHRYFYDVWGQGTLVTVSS
T5 sequence (VL, as listed by the source, chain 2 of 2): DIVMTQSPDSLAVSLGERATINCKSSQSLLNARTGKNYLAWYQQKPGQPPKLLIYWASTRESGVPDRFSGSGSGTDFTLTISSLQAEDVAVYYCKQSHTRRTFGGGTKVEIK
T25 sequence (VH, as listed by the source, chain 1 of 2): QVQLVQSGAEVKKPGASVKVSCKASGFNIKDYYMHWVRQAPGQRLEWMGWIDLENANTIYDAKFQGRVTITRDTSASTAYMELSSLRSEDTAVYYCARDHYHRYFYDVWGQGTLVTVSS
T25 sequence (VL, as listed by the source, chain 2 of 2): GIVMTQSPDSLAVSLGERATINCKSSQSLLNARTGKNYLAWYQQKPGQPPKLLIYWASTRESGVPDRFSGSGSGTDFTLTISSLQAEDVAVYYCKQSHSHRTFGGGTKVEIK
T6 sequence (VL, as listed by the source, chain 2 of 2): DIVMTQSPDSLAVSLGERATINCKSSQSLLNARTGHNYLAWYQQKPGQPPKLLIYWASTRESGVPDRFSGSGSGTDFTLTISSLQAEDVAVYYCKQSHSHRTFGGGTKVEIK
T27 sequence (VL, as listed by the source, chain 2 of 2): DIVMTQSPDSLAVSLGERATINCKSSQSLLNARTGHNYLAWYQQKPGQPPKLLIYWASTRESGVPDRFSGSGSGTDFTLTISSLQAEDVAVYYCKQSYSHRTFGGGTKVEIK
T15 sequence (VH, as listed by the source limits assumed, chain 1 of 2): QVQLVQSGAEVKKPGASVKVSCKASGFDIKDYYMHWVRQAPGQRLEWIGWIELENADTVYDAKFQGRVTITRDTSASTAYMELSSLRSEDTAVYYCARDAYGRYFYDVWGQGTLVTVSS
T9 sequence (VH, as listed by the source, chain 1 of 2): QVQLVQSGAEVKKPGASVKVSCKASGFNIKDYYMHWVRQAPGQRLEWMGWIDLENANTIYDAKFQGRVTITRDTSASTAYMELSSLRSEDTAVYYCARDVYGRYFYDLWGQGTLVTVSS
T9 sequence (VL, as listed by the source, chain 2 of 2): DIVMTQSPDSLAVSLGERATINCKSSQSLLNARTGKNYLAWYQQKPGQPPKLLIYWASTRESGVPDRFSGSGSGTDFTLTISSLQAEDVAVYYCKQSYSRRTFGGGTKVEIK
T33 sequence (VH, as listed by the source limits assumed, chain 1 of 2): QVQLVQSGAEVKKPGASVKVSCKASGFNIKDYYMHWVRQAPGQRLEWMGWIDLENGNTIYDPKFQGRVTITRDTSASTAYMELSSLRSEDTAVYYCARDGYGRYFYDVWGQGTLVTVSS
T33 sequence (VL, as listed by the source limits assumed, chain 2 of 2): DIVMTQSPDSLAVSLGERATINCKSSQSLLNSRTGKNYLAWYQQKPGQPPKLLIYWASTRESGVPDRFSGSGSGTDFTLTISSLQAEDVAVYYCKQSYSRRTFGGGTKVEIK
T19 sequence (VH, as listed by the source limits assumed, chain 1 of 2): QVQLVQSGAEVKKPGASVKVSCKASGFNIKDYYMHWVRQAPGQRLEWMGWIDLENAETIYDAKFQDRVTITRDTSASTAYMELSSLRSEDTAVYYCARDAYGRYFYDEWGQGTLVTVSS
T12 sequence (VH, as listed by the source, chain 1 of 2): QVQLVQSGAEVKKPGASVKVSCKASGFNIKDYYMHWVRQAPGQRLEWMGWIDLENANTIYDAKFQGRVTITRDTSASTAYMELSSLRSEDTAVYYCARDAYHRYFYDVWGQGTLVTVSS
T17 sequence (VH, as listed by the source limits assumed, chain 1 of 2): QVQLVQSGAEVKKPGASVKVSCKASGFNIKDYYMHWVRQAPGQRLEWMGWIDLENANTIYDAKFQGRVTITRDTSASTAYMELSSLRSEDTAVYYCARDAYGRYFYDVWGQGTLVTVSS

B1: ADI-34138 (antibody, V domains shown)
VH: QVQLVQSGAEVKKPGSSVKVSCKASGGTFSSYAISWVRQAPGQGLEWMGGIIPIFGTANYAQKFQGRVTITADESTSTAYMELSSLRSEDTAVYYCARGAPNYYGSGGYDDGWFDPWGQGTLVTVSS
VL: EIVMTQSPGTLSLSPGERATLSCRASQSVSSSYLAWYQQKPGQAPRLLIYGASNRATGIPDRFSGSGSGTDFTLTISRLEPEDFAVYYCQQAHTALWTFGGGTKVEIK
notes: anti-ID IgG
- Kd (ADI-74968): 29 nM
- Kd (ADI-50024): 19 nM
- Kd (ADI-70330): 45 nM
- Kd (ADI-76358): 29 nM
- Kd (ADI-48650): 110 nM
- Kd (ADI-48587): 29 nM
- Kd (ADI-26906 IgG): 20 nM
- Kd (ADI-76357): 17 nM
- Kd (ADI-26916 IgG): 64 nM
- binding result (ADI-48592): binds
- Kd (ADI-76360): 57 nM
- Kd (ADI-74965): 34 nM
- Kd (ADI-76361): 21 nM
- Kd (CTL-62223): 46 nM
- Kd (ADI-70326): 42 nM
- Kd (ADI-70327): 160 nM
- Kd (ADI-26919): 33 nM
- binding result (ADI-48576): binds
- Kd (ADI-67445): 27 nM
- Kd (ADI-67450): 27 nM
- Kd (ADI-26943): 22 nM
- Kd (ADI-26921 IgG): 17 nM
- Kd (ADI-26924): 16 nM
- Kd (ADI-76359): 9.5 nM
- Kd (ADI-74967): 18 nM
- Kd (ADI-26913 IgG): 16 nM
- Kd (ADI-74966): 15 nM
- Kd (ADI-67447): 12 nM
- Kd (ADI-26909): 12 nM
- Kd (ADI-26920 IgG): 10 nM
- Kd (ADI-76362): 17 nM
- Kd (ADI-22523 Fab): 9.69 nM
- Kd (ADI-22523 IgG): 0.57 nM
